2 molecules from PMC10709652, “The separation pin distinguishes the pro– and anti–recombinogenic functions of Saccharomyces cerevisiae Srs2” (Nature Communications, 2023) can be followed below.

One data set concerns the target Srs2 898 F285A (Saccharomyces cerevisiae, UniProt P12954 1-898, F285A). Kind of data set: EMSA; no ATP; 30 mM Tris-HCl pH 7.6, 100 mM KCl, 2 mM MgCl2, 1 mM DTT, 0.2 mg/mL BSA, 30 °C 10 min, no ATP; 1.3 µM (nucleotides) ssDNA, 10-100 nM protein; 10% native PAGE in. Particulars: protein: recombinant; tags: N-terminal GFP; label: 5' fluorescein.
Another data set deals with Srs2 898 F68A (Saccharomyces cerevisiae, UniProt P12954 1-898, F68A). The data set is described as above. The following applies: protein: recombinant; tags: N-terminal GFP; label: 5' fluorescein.
For the next data set, the target named is Srs2 898 H650A (Saccharomyces cerevisiae, UniProt P12954 1-898, H650A). The data set is described as above. Particulars: protein: recombinant; tags: N-terminal GFP; label: 5' fluorescein.
In the next data set the target is GFP-Srs2 1-898 (WT) (Saccharomyces cerevisiae, UniProt P12954 1-898). The description is as above. Particulars: protein: recombinant; tags: N-terminal GFP; label: 5' fluorescein.
For a further data set, the target named is Srs2 898 N70A (Saccharomyces cerevisiae, UniProt P12954 1-898, N70A). The data set is described as above. Particulars: protein: recombinant; tags: N-terminal GFP; label: 5' fluorescein.
A further data set deals with Srs2 898 F219A (Saccharomyces cerevisiae, UniProt P12954 1-898, F219A). The data set is described as follows: EMSA; no ATP; Kd within 10% of WT; 30 mM Tris-HCl pH 7.6, 100 mM KCl, 2 mM MgCl2, 1 mM DTT, 0.2 mg/mL BSA, 30 °C 10 min, no ATP; 1.3 µM (nucleotides) ssDNA, 10-100 nM protein; 10% native PAGE in. The following applies: protein: recombinant; tags: N-terminal GFP; label: 5' fluorescein.

The next data set has as its target Srs2 898 H100A (Saccharomyces cerevisiae, UniProt P12954 1-898, H100A). The data set is described as above. Particulars: protein: recombinant; tags: N-terminal GFP; label: 5' fluorescein.
In another data set the target is Srs2 898 Y283A (Saccharomyces cerevisiae, UniProt P12954 1-898, Y283A). Kind of data set: EMSA; no ATP; Kd within 10% of WT (printed Y238A); 30 mM Tris-HCl pH 7.6, 100 mM KCl, 2 mM MgCl2, 1 mM DTT, 0.2 mg/mL BSA, 30 °C 10 min, no ATP; 1.3 µM (nucleotides) ssDNA, 10-100 nM protein; 10% native PAGE in. Particulars: protein: recombinant; tags: N-terminal GFP; label: 5' fluorescein.

The target of another data set is Srs2 898 R286A (Saccharomyces cerevisiae, UniProt P12954 1-898, R286A). The data set is described as follows: EMSA; no ATP; Kd within 10% of WT (printed R268A); 30 mM Tris-HCl pH 7.6, 100 mM KCl, 2 mM MgCl2, 1 mM DTT, 0.2 mg/mL BSA, 30 °C 10 min, no ATP; 1.3 µM (nucleotides) ssDNA, 10-100 nM protein; 10% native PAGE in. Particulars: protein: recombinant; tags: N-terminal GFP; label: 5' fluorescein.

Substrate in data set [1]: Nc1ncnc2c1ncn2[C@@H]1O[C@H](COP(=O)(O)OP(=O)(O)OP(=O)(O)O)[C@@H](O)[C@H]1O
Kind of data set: ATP hydrolysis, gamma-32P-ATP, thin layer chromatography. The data set is classed as biochemical, Saccharomyces cerevisiae. Particulars: M13 ssDNA 2.5 µM (nucleotides), 2 mM MgCl2, 100 mM KCl, pH 7.6, 30 °C, 40 nM protein. An excerpt:
ATP hydrolysis, gamma-32P-ATP, thin layer chromatography on Srs2^898 (GFP-Srs2 1-898) | The F68A, P671A, and Y775A mutants were all largely unperturbed with respect to ATP hydrolysis

Sequence of GFP-Srs2 1-898 (WT) (P12954 1-898): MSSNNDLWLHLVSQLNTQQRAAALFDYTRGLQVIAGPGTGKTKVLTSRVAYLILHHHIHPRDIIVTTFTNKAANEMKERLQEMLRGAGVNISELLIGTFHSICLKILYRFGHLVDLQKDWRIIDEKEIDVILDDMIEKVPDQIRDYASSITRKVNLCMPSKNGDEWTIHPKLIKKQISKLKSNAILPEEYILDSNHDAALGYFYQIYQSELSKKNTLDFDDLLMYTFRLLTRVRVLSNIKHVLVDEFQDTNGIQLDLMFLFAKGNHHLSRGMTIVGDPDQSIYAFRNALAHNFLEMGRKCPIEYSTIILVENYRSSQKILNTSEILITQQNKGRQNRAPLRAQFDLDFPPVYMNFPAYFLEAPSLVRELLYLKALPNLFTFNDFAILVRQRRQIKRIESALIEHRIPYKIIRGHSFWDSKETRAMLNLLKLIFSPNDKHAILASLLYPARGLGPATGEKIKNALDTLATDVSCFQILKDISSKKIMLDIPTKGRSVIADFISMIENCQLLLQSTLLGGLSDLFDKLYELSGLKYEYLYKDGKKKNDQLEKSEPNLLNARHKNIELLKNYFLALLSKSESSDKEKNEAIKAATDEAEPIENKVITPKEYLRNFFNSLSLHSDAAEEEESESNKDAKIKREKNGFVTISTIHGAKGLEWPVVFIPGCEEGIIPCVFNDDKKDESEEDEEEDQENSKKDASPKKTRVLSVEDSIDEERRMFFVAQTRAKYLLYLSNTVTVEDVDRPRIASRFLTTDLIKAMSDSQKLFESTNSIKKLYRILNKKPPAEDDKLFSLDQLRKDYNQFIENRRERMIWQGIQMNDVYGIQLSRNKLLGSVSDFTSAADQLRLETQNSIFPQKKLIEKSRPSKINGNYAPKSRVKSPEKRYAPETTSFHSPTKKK
Sequence of Srs2 898 N70A (P12954 1-898 N70A): as the sequence (P12954 1-898) above, with N70A counted along it
Sequence of Srs2 898 F68A (P12954 1-898 F68A): as the sequence (P12954 1-898) above, with F68A counted along it
Sequence of Srs2 898 H650A (P12954 1-898 H650A): as the sequence (P12954 1-898) above, with H650A counted along it

B1: 40-nt ssDNA (ssDNA)
DNA: ATTAAGCTCTAAGCCATGAATTCAAATGACCTCTTATCAA
With B1, the Kd with Srs2 898 F285A stood at 41 nM; with Srs2 898 F68A, 31 ± 2 nM; in the data set with Srs2 898 H650A, 46 ± 3 nM; in the data set with GFP-Srs2 1-898 (WT), 29 ± 3 nM; in the data set with Srs2 898 N70A, 30 ± 3 nM. Further, the binding result in the data set with Srs2 898 F219A, with Srs2 898 H100A, in the data set with Srs2 898 Y283A and in the data set with Srs2 898 R286A was “binds” in each case.

B2: Srs2^898 (GFP-Srs2 1-898) (Saccharomyces cerevisiae S288C; P671A) (protein)
chain: MSSNNDLWLHLVSQLNTQQRAAALFDYTRGLQVIAGPGTGKTKVLTSRVAYLILHHHIHPRDIIVTTFTNKAANEMKERLQEMLRGAGVNISELLIGTFHSICLKILYRFGHLVDLQKDWRIIDEKEIDVILDDMIEKVPDQIRDYASSITRKVNLCMPSKNGDEWTIHPKLIKKQISKLKSNAILPEEYILDSNHDAALGYFYQIYQSELSKKNTLDFDDLLMYTFRLLTRVRVLSNIKHVLVDEFQDTNGIQLDLMFLFAKGNHHLSRGMTIVGDPDQSIYAFRNALAHNFLEMGRKCPIEYSTIILVENYRSSQKILNTSEILITQQNKGRQNRAPLRAQFDLDFPPVYMNFPAYFLEAPSLVRELLYLKALPNLFTFNDFAILVRQRRQIKRIESALIEHRIPYKIIRGHSFWDSKETRAMLNLLKLIFSPNDKHAILASLLYPARGLGPATGEKIKNALDTLATDVSCFQILKDISSKKIMLDIPTKGRSVIADFISMIENCQLLLQSTLLGGLSDLFDKLYELSGLKYEYLYKDGKKKNDQLEKSEPNLLNARHKNIELLKNYFLALLSKSESSDKEKNEAIKAATDEAEPIENKVITPKEYLRNFFNSLSLHSDAAEEEESESNKDAKIKREKNGFVTISTIHGAKGLEWPVVFIPGCEEGIIACVFNDDKKDESEEDEEEDQENSKKDASPKKTRVLSVEDSIDEERRMFFVAQTRAKYLLYLSNTVTVEDVDRPRIASRFLTTDLIKAMSDSQKLFESTNSIKKLYRILNKKPPAEDDKLFSLDQLRKDYNQFIENRRERMIWQGIQMNDVYGIQLSRNKLLGSVSDFTSAADQLRLETQNSIFPQKKLIEKSRPSKINGNYAPKSRVKSPEKRYAPETTSFHSPTKKK
notes: residues 1-898 of 1174 (C-terminal 276 residues omitted), N-terminal GFP tag kept, pET15b, Talon purified; expressed in E. coli Rosetta2 (DE3)
As for B2, in [1], the Km came out at 1590 ± 720 µM and the kcat amounted to 50 ± 7 sec–1.
